The source of these data is the Immune Epitope Database (IEDB).

Test [1] addresses HLA-B*45:01. As to the kind of experiment: IEDB peptide-MHC binding, purified MHC/competitive/radioactivity; filed as Kd, often an IC50 or EC50 that approximates it; ≥ and ≤ were set here for values at or beyond the usual limits of such assays.
For test [2], the target named is HLA-B*40:02. The description is as above.
Test [3] deals with HLA-B*18:01. The description is as above.
The target in test [4] is HLA-B*44:02. The description is as above.
For test [5], the target named is HLA-B*44:03. The description is as above.
The target of test [6] is HLA-B*40:01. The test is described as above.
The target of test [7] is HLA-B*18:01. Description: IEDB peptide-MHC binding, purified MHC/direct/fluorescence; filed as Kd, often an IC50 or EC50 that approximates it; ≥ and ≤ were set here for values at or beyond the usual limits of such assays.
The target in test [8] is HLA-B*46:01. As to the kind of experiment: IEDB peptide-MHC binding, purified MHC/competitive/fluorescence; filed as Kd, often an IC50 or EC50 that approximates it; ≥ and ≤ were set here for values at or beyond the usual limits of such assays. The settings on record: source organism: Giardia lamblia ATCC 50803.
The target of test [9] is HLA-A*31:01. Description: IEDB peptide-MHC binding, purified MHC/direct/fluorescence; filed as Kd, often an IC50 or EC50 that approximates it; ≥ and ≤ were set here for values at or beyond the usual limits of such assays. The following applies: source organism: Giardia lamblia ATCC 50803.
The target of test [10] is HLA-A*01:01. The description is as above. The following applies: source organism: Giardia lamblia ATCC 50803.
Test [11] addresses HLA-A*69:01. The description is as above. The following applies: source organism: Giardia lamblia ATCC 50803.
The target in test [12] is HLA-A*26:01. The test is described as above. The settings on record: source organism: Giardia lamblia ATCC 50803.
For test [13], the target named is HLA-B*58:01. The test is described as above. The settings on record: source organism: Giardia lamblia ATCC 50803.
Test [14] addresses HLA-B*07:02. The test is described as above. The following applies: source organism: Giardia lamblia ATCC 50803.
Test [15] addresses HLA-B*44:02. The description is as above. The following applies: source organism: Giardia lamblia ATCC 50803.
Test [16] concerns the target HLA-A*11:01. Described as above. The following applies: source organism: Giardia lamblia ATCC 50803.
The target in test [17] is HLA-A*03:01. Described as above. The following applies: source organism: Giardia lamblia ATCC 50803.
The target of test [18] is HLA-B*27:05. Described as above. The following applies: source organism: Giardia lamblia ATCC 50803.
Test [19] deals with HLA-B*08:01. The test is described as above. The settings on record: source organism: Giardia lamblia ATCC 50803.
For test [20], the target named is HLA-B*40:01. The test is described as above. The settings on record: source organism: Giardia lamblia ATCC 50803.
Test [21] has as its target HLA-B*15:01. The description is as above. The following applies: source organism: Giardia lamblia ATCC 50803.
Test [22] concerns the target HLA-A*02:01. The test is described as above. The settings on record: source organism: Giardia lamblia ATCC 50803.
The mark [23] stands for this setting: source organism: SARS coronavirus Tor2.
Setting [24] is: source organism: Mammarenavirus lassaense.
Where [25] appears, read: source organism: Mammarenavirus machupoense.
The mark [26] stands for this setting: source organism: Lymphocytic choriomeningitis virus (strain Armstrong).
[27] abbreviates: source organism: Dengue virus 1 Brazil/97-11/1997.
Setting [28] is: source organism: Mammarenavirus juninense.
Setting [29] is: source organism: Mammarenavirus guanaritoense.

With QEAYEQAVA, the Kd in test [1] (setting [23]) is 0.0149 µM; in [2] (setting [23]), 1.2 µM; in [3] (setting [23]), 3.87 µM; in [4] (setting [23]), 17.3 µM; in test [5] (setting [23]), 6.86 µM; in test [6] (setting [23]), at least 26 µM.

As to YENAFLPFT, the Kd in test [1] (setting [23]) was 0.0936 µM; in test [2] (setting [23]), 0.0364 µM; in test [3] (setting [23]) it was 0.112 µM; in [4] (setting [23]), 1.65 µM; in [5] (setting [23]), 0.857 µM; in test [6] (setting [23]), 6.12 µM.

Regarding AEVVKLPSRY, the Kd in [1] (setting [23]) was 9.83 µM; in test [2] (setting [23]) it was at least 22.2 µM; in [3] (setting [23]), 4.99 µM; in [4] (setting [23]), 0.144 µM; in test [5] (setting [23]), 0.0764 µM; in test [6] (setting [23]) it was 15 µM.

Take HDLMKQKCL: the Kd was 19.1 µM in test [1] (setting [24]); 1.57 µM in test [2] (setting [24]); at least 77.5 µM in [3] (setting [24]); at least 77.9 µM in [4] (setting [24]); at least 78.1 µM in test [5] (setting [24]); at least 40 µM in [6] (setting [24]).

In the case of EEPAALLPLS, the Kd is 0.211 µM in [1] (setting [25]); 0.859 µM in test [2] (setting [25]); 11.5 µM in [3] (setting [25]); 3.41 µM in test [4] (setting [25]); at least 20 µM in test [5] (setting [25]); 12 µM in test [6] (setting [25]).

Turning to SEYKGPVTDV, the Kd in test [1] (setting [23]) was 0.0372 µM; in [2] (setting [23]), 0.0229 µM; in [3] (setting [23]) it was at least 70.5 µM; in test [4] (setting [23]), 17.1 µM; in [5] (setting [23]), 0.795 µM; in test [6] (setting [23]), 1 µM.

With REFLTRNPAW, the dissociation constant Kd in test [1] (setting [23]) is 0.569 µM; in test [2] (setting [23]) it was 0.0235 µM; in test [3] (setting [23]), at least 33.4 µM; in test [4] (setting [23]) it was 0.00402 µM; in test [5] (setting [23]) it was 0.00583 µM; in test [6] (setting [23]), 0.0502 µM.

Turning to KDCVMYASAL, the Kd in test [1] (setting [23]) was at least 70 µM; in test [2] (setting [23]) it was 3.29 µM; in [3] (setting [23]), at least 70.5 µM; in test [4] (setting [23]) it was 10.7 µM; in test [5] (setting [23]) it was 11.9 µM; in test [6] (setting [23]) it was at least 60.5 µM.

With KDLQRLRSL, the Kd in test [1] (setting [26]) was at least 43.1 µM; in test [2] (setting [26]), 0.165 µM; in test [3] (setting [26]) it was 5.86 µM; in [4] (setting [26]), at least 43.6 µM; in [5] (setting [26]), at least 66 µM; in test [6] (setting [26]) it was 4.49 µM.

With MEVQLIRQM, the Kd in test [4] (setting [27]) turned out to be 0.0173 µM; in [5] (setting [27]), 0.0189 µM; in [7] (source organism: dengue virus type 1), 0.0015 µM.

As to HESFDLAGLF, the Kd in test [1] (setting [28]) was found to be 1.76 µM; in test [2] (setting [28]), 0.435 µM; in test [3] (setting [28]), 1.14 µM; in test [4] (setting [28]), 0.175 µM; in [5] (setting [28]), 0.776 µM; in test [6] (setting [28]), 1.98 µM.

Regarding EDFLLMYEM, the Kd in test [1] (setting [29]) was found to be 4.64 µM; in [2] (setting [29]), 0.00567 µM; in test [3] (setting [29]) it was 0.0921 µM; in test [4] (setting [29]) it was 0.582 µM; in test [5] (setting [29]) it was 2.55 µM; in [6] (setting [29]), 16.9 µM.

As for DESALNISGY, the dissociation constant Kd in test [1] (setting [29]) was at least 70 µM; in [2] (setting [29]), at least 29.2 µM; in test [3] (setting [29]), 0.0225 µM; in test [4] (setting [29]) it was 10.9 µM; in test [5] (setting [29]), 3.37 µM; in [6] (setting [29]), at least 69.5 µM.

Sequence SEQGEFKLL returned a Kd in [7] (source organism: Yellow fever virus 17D) of 0.875 µM.

Turning to AEAYCTGML, the Kd is 1.38 µM in test [1] (setting [29]); 0.111 µM in [2] (setting [29]); at least 77.5 µM in test [3] (setting [29]); 0.182 µM in [4] (setting [29]); 0.343 µM in test [5] (setting [29]); 0.116 µM in test [6] (setting [29]).

Consider QELGHEDLM, for which the Kd is 2.74 µM in test [1] (setting [23]); 3 µM in test [2] (setting [23]); at least 31.8 µM in [3] (setting [23]); 15.4 µM in test [4] (setting [23]); 3.71 µM in test [5] (setting [23]); 5.54 µM in test [6] (setting [23]).

Regarding HDWHLDPPF, the Kd in test [1] (setting [28]) was at least 77.7 µM; in test [2] (setting [28]), 0.0221 µM; in test [3] (setting [28]), 2.39 µM; in test [4] (setting [28]), 18.5 µM; in [5] (setting [28]), 7.96 µM; in test [6] (setting [28]), at least 72 µM.

Take EDQLLPFMS: the equilibrium dissociation constant (Kd) was 3.73 µM in test [1] (setting [26]); at least 65.4 µM in test [2] (setting [26]); at least 55.5 µM in [3] (setting [26]); at least 35.2 µM in [4] (setting [26]); at least 78.1 µM in [5] (setting [26]); at least 59.3 µM in test [6] (setting [26]).

As for YEQVVMDYL, the Kd was determined as 3.78 µM in [1] (setting [23]); 0.0302 µM in [2] (setting [23]); 0.349 µM in test [3] (setting [23]); 0.371 µM in test [4] (setting [23]); 0.298 µM in test [5] (setting [23]); 0.000609 µM in test [6] (setting [23]).

Consider AAFLDDNAF, for which the Kd in [8] is 0.118 µM; in test [9] it was at least 20 µM; in [10], at least 20 µM; in [11], at least 20 µM; in test [12], at least 20 µM; in test [13], at least 20 µM. Also, the Kd in [14], in test [15], in test [16], in [17], in test [18] and in test [19] was at least 20 µM in each case. Further, the Kd is at least 20 µM in [20] and 0.106 µM in test [21].

For the sequence AEAAVKPLL, the Kd in test [1] (setting [23]) was 0.152 µM; in test [2] (setting [23]), 19.5 µM; in test [3] (setting [23]) it was at least 77.5 µM; in test [4] (setting [23]), 0.0608 µM; in test [5] (setting [23]), 0.0536 µM; in test [6] (setting [23]) it was 0.00843 µM.

Consider AEFWDVFLS, for which the Kd in test [9], in test [10], in test [22], in test [11], in [12] and in test [13] was at least 20 µM throughout. Besides, the Kd in test [14], in test [15], in test [16], in test [17], in test [18] and in test [19] was at least 20 µM in each case. Moreover, the Kd is 0.0499 µM in test [20] and at least 20 µM in [21].

In the case of DEDDSEPVL, the Kd in test [1] (setting [23]) is 17.9 µM; in test [2] (setting [23]), 3.17 µM; in test [3] (setting [23]), 5.29 µM; in [4] (setting [23]) it was at least 38.3 µM; in test [5] (setting [23]), 15.8 µM; in test [6] (setting [23]), 0.137 µM.

Consider STFVSAARQG, for which the Kd came out at 2.01 µM in test [1] (setting [23]); 0.535 µM in [2] (setting [23]); 8.68 µM in [3] (setting [23]); 0.237 µM in test [4] (setting [23]); 0.394 µM in [5] (setting [23]); 8.59 µM in test [6] (setting [23]).

As to AEGSRGGSQA, the Kd in test [1] (setting [23]) is 0.205 µM; in test [2] (setting [23]) it was 18.8 µM; in test [3] (setting [23]), at least 70.5 µM; in test [4] (setting [23]) it was 8.48 µM; in [5] (setting [23]), 14.6 µM; in [6] (setting [23]) it was at least 27.9 µM.
